Experimental data: publication PMC4150794, “Homodimerization of RBPMS2 through a new RRM-interaction motif is necessary to control smooth muscle plasticity” (Nucleic Acids Research, 2014)

Biological target: the molecule itself
Assay: SEC-MALS; Superdex 75 10/300, 20 mM Tris-HCl pH 8, 300 mM NaCl; loaded at 2 mg/ml (RBPMS2-Nter) or 4 mg/ml (RBPMS2-Nter-L49E); monomer to dimer

B1: RBPMS2-Nter (human RBPMS2 residues 27-117, RRM domain) (domain or fragment)
chain: not shown
notes: 15N- or 15N/13C-labelled for NMR; also called pET22-RBPMS2-Nter; RRM domain of RBPMS2; source: E. coli BL231DE3 (so in the source), purified (His Trap FF)
**Q.** Which “stoichiometry N” value does the source give for B1 here?
**A.** Its value is 2.
